This data set deals with the molecule itself. Briefly: SEC; last step of purification; HiLoad 16/60 Superdex 200 pg, 1 ml/min, Hepes pH 7, 100mM NaCl; calibrated with Bio-Rad gel filtration standard. A general note: In gel filtration, larger molecules generally elute earlier.

Broadly, the stoichiometry N is a count of units in the complex or per binding partner.

B1: CouO, C-methyltransferase from Streptomyces rishiriensis (enzyme)
chain: MKIEPITGSEAEAFHRMGSRAFERYNEFVDLLVGAGIADGQTVVDLCCGSGELEIILTSRFPSLNLVGVDLSEDMVRIARDYAAEQGKELEFRHGDAQSPAGMEDLLGKADLVVSRHAFHRLTRLPAGFDTMLRLVKPGGAILNVSFLHLSDFDEPGFRTWVRFLKERPWDAEMQVAWALAHYYAPRLQDYRDALAQAADETPVSEQRIWVDDQGYGVATVKCFARRAAA
notes: CouO, SAM-dependent C-methyltransferase of coumermycin A1 biosynthesis, Streptomyces rishiriensis; expected MW 26 kDa; also called CouO-WT; source: purified (last step size exclusion chromatography)
Consider B1, for which the “stoichiometry N” value was 2.

Source of the values: article PMC5289526, “Crystal Structure and Catalytic Mechanism of CouO, a Versatile C-Methyltransferase from Streptomyces rishiriensis” (PLoS ONE, 2017).
